Values quoted from earlier work, collected in paper PMC10860761.

Tests used:
actin monomer (ADP) = actin monomer (ADP) (UniProt P60010)
actin monomer (ATP) = actin monomer (ATP) (UniProt P60010)

Sequence of Srv2/CAP WH2 (P17555 287-336): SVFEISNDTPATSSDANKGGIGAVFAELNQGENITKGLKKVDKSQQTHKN
Sequence of Srv2/CAP CARP (P17555 369-526): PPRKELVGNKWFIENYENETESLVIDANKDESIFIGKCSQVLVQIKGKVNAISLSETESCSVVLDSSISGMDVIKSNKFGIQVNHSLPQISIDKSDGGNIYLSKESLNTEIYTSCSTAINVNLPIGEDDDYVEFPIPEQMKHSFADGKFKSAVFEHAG

Substance	Kd (actin monomer (ADP)) [nM]	Kd (actin monomer (ATP)) [nM]
Srv2/CAP CARP (from UniProt P17555)	1500	
Srv2/CAP WH2 (from UniProt P17555)		1000
